The text below walks through data of patent US20200199244A1 (published 2020).

Assay [1] concerns the target T1, biotinylated human CD40 (human, UniProt P25942 21-193, limits assumed, biotinylated (sites not given)).
T1 construct: Biotinylated human CD40 (supplied by BMS), about 600 RU immobilised on a streptavidin BIAcore chip; also called hCD40
The assay can be described thus: SPR, BIAcore 3000, 5 µM dAb alone over biotinylated human CD40. (In general: Surface plasmon resonance follows binding to a sensor surface in real time, without labels.)

In assay [2] the target is T1, biotinylated human CD40. The assay can be described thus: SPR, BIAcore 3000, 10 µM dAb alone over biotinylated human CD40.
Description: (§1) A BIAcore™ 3000 instrument (GE Healthcare) was used to analyze whether CD40-specific dAbs bound the same CD40 epitope. […] A second flow-cell without any ligand immobilized served as a reference flow-cell for inline referencing. An appropriate dilution of each dAb or Fab to be analyzed was prepared in HBS-EP buffer (0.01 M HEPES pH 7.4 with 0.15 M NaCl, 3 mM EDTA and 0.005% v/v Surfactant P20, GE Healthcare). […] Next, a mixture of the same dAb or Fab as above (at the same final concentration) was prepared with a second dAb or Fab to be analyzed for competition. The COINJECT function of the instrument was used to inject 60 μl of the single-inhibitor dilution across the CD40-immobilized and reference flow-cells in series, followed immediately by a 60 μl injection of the two-inhibitor mixture. Inline subtraction of the signal from the reference cell was performed by the instrument's control software. The experiment was performed at 25° C. and a flow rate of 30 μl/min of HBS-EP. […] The maximum RU obtained for the second injection (the mixture of the two inhibitors) was noted and expressed as a percentage of the RU obtained for the same inhibitor when injected alone.
Assay [3] deals with T1, biotinylated human CD40. The assay is described as follows: SPR, BIAcore 3000, dAb injected alone over biotinylated human CD40 on SA chip.
Description: as §1
The target in assay [4] is T1, biotinylated human CD40. The assay can be described thus: SPR, BIAcore 3000 COINJECT over biotinylated human CD40; mixture after first injection; competitor BMS3h-56-5.
Description: as §1
The target in assay [5] is T1, biotinylated human CD40. The assay is described as follows: SPR, BIAcore 3000 COINJECT over biotinylated human CD40; mixture after first injection; competitor BMS3h-37-11.
Description: as §1
Assay [6] deals with T1, biotinylated human CD40. The assay is described as follows: SPR, BIAcore 3000 COINJECT over biotinylated human CD40; mixture after first injection; competitor BMS3h-198-1.
Description: as §1
Assay [7] deals with T1, biotinylated human CD40. The assay is described as follows: SPR, BIAcore 3000 COINJECT over biotinylated human CD40; mixture after first injection; competitor BMS3h-202-11.
Description: as §1
Assay [8] deals with T1, biotinylated human CD40. The assay can be described thus: SPR, BIAcore 3000, dAb injected alone over biotinylated human CD40 on SA chip. The source holds these as a separate data set.
Description: as §1
The target in assay [9] is T1, biotinylated human CD40. The assay can be described thus: SPR, BIAcore 3000 COINJECT over biotinylated human CD40; mixture after first injection; competitor BMS3h-56-5. This is another data set of the same source.
Description: as §1
Assay [10] deals with T1, biotinylated human CD40. The assay is described as follows: SPR, BIAcore 3000 COINJECT over biotinylated human CD40; mixture after first injection; competitor BMS3h-131-2.
Description: as §1
The target in assay [11] is T2, wild type human CD40 Fc fusion (human, UniProt P25942 21-193).
T2 construct: also called wt-hCD40; not shown: human IgG1 Fc
The assay can be described thus: SPR ProteOn XPR36, CD40-Fc captured, dAb analyte.

Assay [12] addresses T3, human CD40 (W109L) Fc fusion (human, UniProt P25942 21-193).
T3 construct: As m1 with W109L; also called hCD40-M2; not shown: human IgG1 Fc
The assay is described as follows: SPR ProteOn XPR36, CD40-Fc captured, dAb analyte.

The target of assay [13] is T4, human CD40 (W109L, L121P) Fc fusion (human, UniProt P25942 21-193).
T4 construct: As m1 with W109L and L121P; also called hCD40-M4; not shown: human IgG1 Fc
The assay can be described thus: SPR ProteOn XPR36, CD40-Fc captured, dAb analyte.

Assay [14] concerns the target T5, human CD40 (H76R, W109L, L121P) Fc fusion (human).
T5 construct: As m1 with H76R, W109L and L121P; also called hCD40-M5; not shown: human IgG1 Fc
T5 chain: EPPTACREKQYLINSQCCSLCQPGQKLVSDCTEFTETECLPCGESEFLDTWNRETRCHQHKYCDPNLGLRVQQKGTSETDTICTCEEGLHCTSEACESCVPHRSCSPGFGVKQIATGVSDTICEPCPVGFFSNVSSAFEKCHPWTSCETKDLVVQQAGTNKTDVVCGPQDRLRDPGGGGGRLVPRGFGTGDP
The assay can be described thus: SPR ProteOn XPR36, CD40-Fc captured, dAb analyte.

For assay [15], the target named is T6, wild type cynomolgus monkey CD40 Fc fusion (cynomolgus monkey; human).
T6 construct: also called wt-cyno-CD40; wt-cCD40; not shown: human IgG1 Fc
T6 chain: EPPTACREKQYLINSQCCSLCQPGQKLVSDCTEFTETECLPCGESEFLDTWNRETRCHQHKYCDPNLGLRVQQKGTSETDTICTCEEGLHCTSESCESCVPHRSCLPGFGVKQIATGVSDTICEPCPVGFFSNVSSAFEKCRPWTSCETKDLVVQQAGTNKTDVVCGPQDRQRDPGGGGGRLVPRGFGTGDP
The assay is described as follows: SPR ProteOn XPR36, CD40-Fc captured, dAb analyte.

Assay [16] has as its target T7, human CD40 (W109R) Fc fusion (Chimpanzee CD40) (human, UniProt P25942 21-193).
T7 construct: As m1 with W109R (residue of chimpanzee CD40); also called hCD40-M3; not shown: human IgG1 Fc
The assay can be described thus: SPR ProteOn XPR36, CD40-Fc captured, dAb analyte.

Assay [17] concerns the target T8, human CD40 (H76R) Fc fusion (human, UniProt P25942 21-193).
T8 construct: As m1 with H76R; also called hCD40-M1; not shown: human IgG1 Fc
The assay is described as follows: SPR ProteOn XPR36, CD40-Fc captured, dAb analyte.

Where “and” joins values, the source holds several entries; their conditions need not be identical. Equal values may be shown once. Read-outs that look alike come from different tables or passages of the source.

B1: BMS3h-193-12 (other)
VL: DIQMTQSPSSLSASVGDRVTITCRASQTIERRLNWYQQKPGKAPKLLIYLASRLQSGVPSRFSGSGSGTDFTLTISSLQPEDFATYYCHQYESPPLTFGQGTKVEIKR
notes: Domain antibody (dAb), single human V kappa domain
As for B1, in [1], the “Single dAb RU” value was 282 RU.

B2: BMS3h-106 (other)
VH: EVQLLESGGGLVQPGGSLRLSCAASGFTFSTYHMQWVRQAPGKGLEWVSMIDADGLGTYYADSVKGRFTISRDNSKNTLYLQMNSLRAEDTAVYYCAKPGPQFGQFDYWGQGTLVTVSS
notes: Domain antibody (dAb), single human VH domain
As to B2, the “Single dAb RU” value in assay [2] was 165 RU.

B3: BMS3h-41-9 (other)
VH: EVQLLEPGGGLVQPGGSLRLSCAASGFTFTEYEMIWVRKAPGKGMEWVSSISGNGANTYYADSVKGRFTISRDNSKNTLYLQMNSLRPEDTAVYYCAKEPLRFDDWGQGTLVTVSS
notes: as for B2
With B3, in assay [3], the “RU first dAb alone” value came to 150 RU. Also, the “Second Injection (% of single dAb RU)” value in [4] amounted to 0%.

B4: BMS3h-41-13 (other)
VH: EVQLLESAGGLVQPGGSLRLSCAASGFTFAEYEMIWVRQAPGKGLEWVSSISGNGANTYYADSVKGRFTISRDNSKNTLYLQMNSLRAEDTAVYYCAKEPLRFDYWGQGALVTVSS
notes: as for B2
In the case of B4, in [1], the “Single dAb RU” value was 162 RU.

B5: BMS3h-107 (other)
VH: EVQLLESGGGLVQPGGSLRLSCAASGFTFSGYDMQWVRQAPGKGLEWVSTISASGVFTYYADSVKGRFTTSRDNSKNTLYLQMNSLRAEDTAVYYCAKYPNRFALNNFDYWGQGTLVTVSS
notes: as for B2
As to B5, the “Single dAb RU” value in [2] came out at 35 RU.

B6: BMS3h-38-2 (other)
VH: EVQLLASGGGLVQPGGSLRLSCAASGFTFEEEEMIWVRQAPGKGLEWVSAISGSGGSTYYADSVKGRFTISRDNSKNTLYLQMNSLRAEDTAVYYCGKEPFRYDYWGQGTLVTVSS
notes: as for B2
Turning to B6, the “RU first dAb alone” value in assay [3] was 170 RU. Besides, in [4], the “Second Injection (% of single dAb RU)” value was 4%.

B7: BMS3h-131-2 (other)
VL: DIQMTQSPSSLSASVGDRVTITCRADSSILWALAWYQQKPGKAPKLLIESSSGLQSGVPSRFSGSGSGTDFTLTISSLQPEDFATYYCVQNAVWPGTFGQGTKVEIKR
notes: as for B1
Consider B7, for which the “Second Injection (% of single dAb RU)” value in [5] was 25%; in [6], 41%; in assay [7] it was 57%; in assay [9], 17%. Also, the “RU first dAb alone” value in assay [8] was 220 RU.

B8: BMS3h-43-1 (other)
VH: EVQLLESGGGLVQPGGSLRLSCTASGFTFNMYEMSWVRQAPGKGLEWVSGISRRGFTTYYADSVKGRFTISRDNSKNTLYLQMNSLRAEDTAVYYCAKEPITYDLRYARFDYSGQGTLVTVSS
notes: as for B2
For B8, the “RU first dAb alone” value in [3] worked out at 210 RU. Also, the “Second Injection (% of single dAb RU)” value in assay [4] was 22%.

B9: BMS3h-43-3 (other)
VH: EVQLLESGGGLVQPGGSLRLSCTASGFTFNMYEMSWVRQAPGKGLEWVSGISRRGFTTYYADSVKGRFTISRDNFKNTLYLQMNSLRAEDTAVYYCAKEPITYDMRYARFDYGGQGTLVTVSS
notes: as for B2
With B9, the “Single dAb RU” value in assay [1] worked out at 300 RU.

B10: BMS3h-37-11 (other)
VH: EVQLLESGGGLVQPGGSLRLSCAASGFTFEWYEMQWVRKAPGKGLEWVSAISGDGYRTYYADSVKGRFTISRDNSKNTLYLQMNSLRAEDTAVYYCAKELGYFDYRGRGTLVTVSS
notes: as for B2
Turning to B10, the “Second Injection (% of single dAb RU)” value in assay [6] is 6.4%; in [7], 42%; in assay [9], -15%; in assay [10], -3.7%. In addition, in assay [8], the “RU first dAb alone” value amounted to 158 RU.

B11: BMS3h-217 (other)
VL: DIQMTQSPSSLSASVGDRVTITCRASHFIGTLLSWYQQKPGKAPKLLITYGSLLQSGVPSRFSGSGSGTDFTLTISSLQPEDFATYYCGQGVLWPATFGQGTKVEIKR
notes: as for B1
For the molecule B11, in assay [2], the “Single dAb RU” value is 85 RU.

B12: BMS3h-217-16 (other)
VL: DIQMTQSPSSLSASVGDRVTITCRASHFIGTLLSWYQQKPRKAPKLLITYGSLLQSGVPSRFSGSGSGTDFTLTISSLQPEDFATYYCGQGVLWPPTFGQGTKVEIKR
notes: domain antibody (dAb), single VK domain
Turning to B12, the Kd in [11] is 0.22 nM and 0.26 nM; in [12], 0.41 nM; in assay [13], 0.35 nM; in [14], 0.5 nM; in assay [15] it was 0.4 nM; in assay [16] it was 0.27 nM. Binding in assay [17] was characterised by a dissociation constant (Kd) of 0.35 nM.

B13: BMS3h-217-23 (other)
VL: DIQMTQSPSSLSASVGDRVTITCRASHFIGSLLSWYQVKPGKAPKLLITYGSLLQSGVPSRFSGSGSGTDFTLTISSLQPEDFATYYCGQGVLWPATFGQGTTVEIKR
notes: as for B12
B13: the Kd in assay [11] is 0.78 nM and 1.5 nM; in assay [12], 2 nM; in [13], 1.6 nM; in assay [14], 2.2 nM; in assay [15], 1.9 nM; in assay [16], 1.2 nM. In [17], this molecule returned a Kd of 1.6 nM.

B14: BMS3h-217-5 (other)
VL: DIQMTQSPSFLSASVGDRVTITCRASHFIATLLSWYQQKPGKAPKLLITYGSLLQSGVPSRFSGSGSGTDFTLTISSLQPEDFATYYCGQGVLWPPTFGQGTKVEIKR
notes: as for B12
Regarding B14, the dissociation constant (Kd) in [11] was 0.47 nM and 0.48 nM; in assay [12], 0.99 nM; in assay [13], 0.93 nM; in assay [14], 1 nM; in assay [15] it was 0.9 nM; in assay [16] it was 0.72 nM. This molecule also returned a dissociation constant (Kd) in assay [17] of 0.94 nM.

B15: BMS3h-202-11 (other)
VH: EVQLLESGGGLVQPGGSLRLSCAASGFTFPTAEMLWVRKAPGKGLEWVSSISASGGSTYYADSVKGRFTISRDNSKNTLYLQMNSLRAEDAAVYYCAKEPVSYVATFDYWGQGTLVTVSS
notes: as for B2
Regarding B15, the “Second Injection (% of single dAb RU)” value in assay [5] turned out to be 0.3%; in assay [6] it was 18%; in assay [9], 7.3%; in assay [10] it was 10.3%. In [8], the “RU first dAb alone” value was found to be 124 RU.

B16: BMS3h-198-1 (other)
VH: EVQLLESGGGLVQPGGSLRLSCAASGSTIAGYEMWWVRQAPGKGLERVSAISGSGGSTYYADSVKGRFTISRDDSKNTLYLQMNSLRAEDTAVYYCARDPYSFDYWGQGTLVTVSS
notes: as for B2
As to B16, the “Second Injection (% of single dAb RU)” value in assay [5] turned out to be 16%; in [7], 39%; in [9], 0.6%; in assay [10], 23.2%. In addition, in assay [8], the “RU first dAb alone” value was determined as 176 RU.

One may read the Kd as the free concentration of one partner at which half of the binding sites on the other are occupied at equilibrium, for simple one-to-one binding.
